# Test results: the DeepSol protein solubility set
# Assay: soluble on expression in E. coli; label from the status in PepcDB or PDB records
row,Sequence,soluble on expression in E. coli
1,SMTYIPPGESLRDLIEQSQSSGSGSGLPLLVQRTIAKQIQMVKQIGKGRYGEVWMGKWRGEKVAVKVFFTTEEASWFRETEIYQTVLMRHENILGFIAADIKGTGSWTQLYLITDYHENGSLYDYLKSTTLDAKSMLKLAYSSVSGLCHLHTEIFSTQGKPAIAHRDLKSKNILVKKNGTCCIADLGLAVKFISDTNEVDIPPNTRVGTKRYMPPEVLDESLNRNHFQSYIMADMYSFGLILWEVARRCVSGGIVEEYQLPYHDLVPSDPSYEDMREIVCIKKLRPSFPNRWSSDECLRQMGKLMTECWAHNPASRLTALRVKKTLAKMSESQDIKL,soluble
2,SMVRLKKSFGQHLLVSEGVLKKIAEELNIEEGNTVVEVGGGTGNLTKVLLQHPLKKLYVIELDREMVENLKSIGDERLEVINEDASKFPFCSLGKELKVVGNLPYNVASLIIENTVYNKDCVPLAVFMVQKEVAEKLQGKKDTGWLSVFVRTFYDVNYVMTVPPRFFVPPPKVQSAVIKLVKNEKFPVKDLKNYKKFLTKIFQNRRKVLRKKIPEELLKEAGINPDARVEQLSLEDFFKLYRLIEDSGE,soluble
3,SNAEQVRQAGIDDIGGILELIHPLEEQGILVRRSREQLEQEIGKFTIIEKDGLIIGCAALYPYSEERKAEMACVAIHPDYRDGNRGLLLLNYMKHRSKSENINQIFVLTTHSLHWFREQGFYEVGVDYLPGAKQGLYNFQRKSKILALDL,soluble
4,SNAESAAPQVHLSILATTDIHANMMDYDYYSDKETADFGLARTAQLIQKHREQNPNTLLVDNGDLIQGNPLGEYAVKYQKDDIISGTKTHPIISVMNALKYDAGTLGNHEFNYGLDFLDGTIKGADFPIVNANVKTTSGENRYTPYVINEKTLIDENGNEQKVKVGYIGFVPPQIMTWDKKNLEGQVQVQDIVESANETIPKMKAEGADVIIALAHTGIEKQAQSSGAENAVFDLATKTKGIDAIISGHQHGLFPSAEYAGVAQFNVEKGTINGIPVVMPSSWGKYLGVIDLKLEKADGSWKVADSKGSIESIAGNVTSRNETVTNTIQQTHQNTLEYVRK,soluble
5,SNAKDVLGLTLLEKTLKERLNLKDAIIVSGDSDQSPWVKKEMGRAAVACMKKRFSGKNIVAVTGGTTIEAVAEMMTPDSKNRELLFVPARGGLGEDVKNQANTICAHMAEKASGTYRLLFVPGQLSQGAYSSIIEEPSVKEVLNTIKSASMLVHGIGEAKTMAQRRNTPLEDLKKIDDNDAVTEAFGYYFNADGEVVHKVHSVGMQLDDIDAIPDIIAVAGGSSKAEAIEAYFKKPRNTVLVTDEGAAKKLLRDE,soluble
6,SNALANRIENVVSQERTRKKFESLVSDSPDGIVHLTTNGTILSVNPSMAGRLGADPDTLVGQQLSAVMDSEAANQRLEAGKSAVENGTATRSEDAVGGRHYHNQYIPVDSHRKSDTFQLVSRDIT,soluble
7,SNAMANFEDFLTLDLRIGTVTHAEEFKEARVPAIRLEIDFGELGMKQSSAQITKRYNPEDLIGQQIVAVVNFPPKRVAGFKSEVLVLGGVPEAGDVVLLQPNMELPNGTKIS,soluble
8,SNAMATNLIGLDTTQSQKLANALNNLLANYQVFYMNTRGYHWNIQGKEFFELHAKFEEIYTDLQLKIDELAERILTLSARPMHSFSGYLKAAQIKEHTDSIDGRSSMQGLVDGFSILLHQQRDILELAGETGDEGTSALMSDYIREQEKLVWMLNAWLK,soluble
9,SNAMAWVVNKQSTQEELANRFRALVEANEILQIPGAHDAMAALVARNTGFLALYLSGAAYTASKGLPDLGIVTSTEVAERARDLVRATDLPVLVDIDTGFGGVLNVARTAVEMVEAKVAAVQIEDQQLPKKCGHLNGKKLVTTEELVQKIKAIKEVAPSLYIVARTDARGVEGLDEAIERANAYVKAGADAIFPEALQSEEEFRLFNSKVNAPLLANMTEFGKTPYYSAEEFANMGFQMVIYPVTSLRVAAKAYENVFTLIKETGSQKDALSNMQTRSELYETISYHDFEELDTGIAKTVLSEDQ,soluble
10,SNAMFHYTVDVSTGMNETIERLEESLKQEGFGVLWQFSVTEKLQEKGLDFSTPMVILEVCNPQEAARVLNENLLVGYFLPCKLVVYQENGTTKIGMPKPTMLVGMMNDPALKEIAADIEKRLAACLDRCR,soluble
11,SNAMIAKEFETFLLGQEETFLTPAKNLAVLIDTHNADHATLLLSQMTYTRVPVVTDEKQFVGTIGLRDIMAYQMEHDLSQEIMADTDIVHMTKTDVAVVSPDFTITEVLHKLVDESFLPVVDAEGIFQGIITRKSILKAVNALLHDFSKEYEIRCQ,soluble
12,SNAMKAPELQIQQWFNSATDLTLADLRGKVIVIEAFQMLCPGCVMHGIPLAQKVRAAFPEDKVAVLGLHTVFEHHEAMTPISLKAFLHEYRIKFPVGVDQPGDGAMPRTMAAYQMRGTPSLLLIDKAGDLRAHHFGDVSELLLGAEIATLLGEAAPSV,soluble
13,SNAMNHSRESYDRLARELGGYRHPWARVLSGPDPELTFDLWLSRLLTPQTRVLEAGCGHGPDAARFGPQAARWAAYDFSPELLKLARANAPHADVYEWNGKGELPAGLGAPFGLIVSRRGPTSVILRLPELAAPDAHFLYVGPRLNVPEVPERLAAVGWDIVAEDHVSVLAHAPTWEDWQMRGEFMGKLARRADWDAEATVRGMPYREERHLVLARQLGVARKLGA,soluble
14,SNAMNVIRLKEDKFREALRLSEYAFQYKVDEDRLQQQITKMKESHEVYGIMEGENLAAKLHLIPFHIYIGKEKFKMGGVAGVATYPEYRRSGYVKELLQHSLQTMKKDGYTVSMLHPFAVSFYRKYGWELCANLLVCHMTKSDLVMKKQVNGTVKRFNKESHPEEVEKLYETFAELFSGMLVRNEKWWLQAVYDDLTLAIYYDENQTAAGYMLYKIENYKMTVEEFVPLHNEARNGLWNFICQHDSMIKDLEMTVSENEPLLYTLQEPRVKTEIKPYFMGRIVDVEQFLKQYELNWNNVQQEVILHITDSFAQWNNITVRIANHEITIIEEPIDKGIKLDINALSTILFGYRRPLELNELELISGSEEEIRAFESVVPVRKPFIYDFF,soluble
15,SNAMNVNQIVRIIPTLKANNRKLNETFYIETLGMKALLEESAFLSLGDQTGLEKLVLEEAPSMRTRKVEGRKKLARLIVKVENPLEIEGILSKTDSIHRLYKGQNGYAFEIFSPEDDLILIHAEDDIASLVEVGEKPEFQTDLASISLSKFEISMELHLPTDIESFLESSEIGASLDFIPAQGQDLTVDNTVTWDLSMLKFLVNELDIASLRQKFESTEYFIPKSEKFFLGKDRNNVELWFEEV,soluble
16,SNAMRVLTGLQPSGDLHIGNYFGAIKQMVDAQEKSQMFMFIANYHAMTSSQDGEKLKQNSLKAAAAFLSLGIDPQKSVFWLQSDVKEVMELYWILSQFTPMGLLERAHSYKDKVAKGLSASHGLFSYPVLMAADILLFDTRIVPVGKDQIQHVEIARDIALKVNNEWGEIFTLPEARVNEEVAVVVGTDGAKMSKSYQNTIDIFSSEKTLKKQISSIVTDSTALEDPKDHENCNIFKIAKLFLDESGQKELQIRYEKGGEGYGHFKIYLNELVNAYFKEAREKYNELLEKPSHLKEILDFGATKARKIAQEKMQKIYEKIGL,soluble
17,SNAMSDKFHILLLNGPNLNLLGTREPEKYGYTTLAEIVSQLEIQAQGMDVALSHLQSNAEHALIDSIHQARGNTDFILINPAAFTHTSVALRDALLGVQIPFIEIHLSNVHAREPFRHHSYLSDIAVGVICGLGADGYNFALQAAVNRLSKSN,soluble
18,SNAMSEFIMNNLEQTARRWLEERGVTVEKIAELVYYLQSKYHPDLTMEECIENVNRVISKREVQNAILTGIQLDKLAEDGRLDEPLQSIIRRDEGLYGVDEILALSIVNVYGSIGFTNYGYIDKQKPGILQYLNDKSTGKCNTFLDDIVGAIAAAASSRLAHRAANAE,soluble
19,SNAMTDAVLELPAATFDLPLSLSGGTQTTLRAHAGHWLVIYFYPKDSTPGATTEGLDFNALLPEFDKAGAKILGVSRDSVKSHDNFCAKQGFAFPLVSDGDEALCRAFDVIKEKNMYGKQVLGIERSTFLLSPEGQVVQAWRKVKVAGHADAVLAALKAHAKQ,soluble
20,SNAMTEARKIPKPSFPYGSPGELNSFLPYLLTRITHIWSSELNQALASEKLPTPKLRLLSSLSAYGELTVGQLATLGVMEQSTTSRTVDQLVDEGLAARSISDADQRKRTVVLTRKGKKKLAEISPLINDFHAELVGNVDPDKLQTCIEVLGEILKGKTDY,soluble
21,SNANAEPAVKAESAGKSVAASLKARLEKTYSAQDLKVLSVSETPVKGIYEVVVSGRQIIYTDAEGGYMFVGELINIDTRKNLTEERAADLNKIDFASLPLDKAIKEVRGNGKLKVAVFSDPDCPFCKRLEHEFEK,not soluble
22,SNANNLFVYCEIEEGIVADVSLELLTKGRSLANELNCQLEAVVAGTGLKEIEKQILPYGVDKLHVFDAEGLYPYTSLPHTSILVNLFKEEQPQICLMGATVIGRDLGPRVSSALTSGLTADCTSLEIGDHEDKKEGKVYKNLLYQIRPAFGGNIVATIVNPEHRPQMATVREGVMKKEIVSPAYQGEVIRHDVKKYVADTDYVVKVIERHVEKAKNN,soluble
23,SNAQVEVIVMMHGRSTATSMVETVQELLSIESGIALDMPLTVEVKAMYEKLKQTVVKLNPVKGVLILSDMGSLTSFGNILTEELGIRTKTVTMVSTPVVLEAMRKASLGRGLEDIYQSCEQLFENKYKAH,soluble
24,SNARGLGSELKDSIPVAELSASGPFESHDLLRKGFSCVKNELLPSHPLELSEKNFQLNQDKMNFSTLRNIQGLFAPLKLQMEFKAVQQVHRLPFLPSSNLSLDILRGNDETIGFEDILNDPSQSELMGEPHVMVEHKLGLL,soluble
25,SNASKGMALRSVGGMVIESPRNETEHWLLETVGRQAQQAGIGMPTVAIYDSADINAFATGAKRDDSLVAVSTGLLHNMTRDEAEAVLAHEVSHIANGDMVTMTLMQG,soluble
26,SNIMDFNVKKLAADAGTFLSRAVQFTEEKLGQAEKTELDAHLENLLSKAECTKIWTEKIMKQTEVLLQPNPNARIEEFVYEKLDRKAPSRINNPELLGQYMIDAGTEFGPGTAYGNALIKCGETQKRIGTADRELIQTSALNFLTPLRNFIEGDYKTIAKERKLLQNKRLDLDAAKTRLKKAKAAETRNSSEQELRITQSEFDRQAEITRLLLEGISSTHAHHLRCLNDFVEAQMTYYAQCYQYMLDLQKQLGSFPSNYLSNNNQTSVTPVPSVLPNAIGSSAMASTSGLVITSPSNLSDLKECSGSRKARVLYDYDAANSTELSLLADEVITVFSVVGMDSDWLMGERGNQKGKVPITYLELLN,not soluble
27,SNTLRDFFTNETYTTIENEQHVLTEYRLPGSIERRYYSEEATAPTTVRSVQHVLLPENEEASSDKDLSILSSSFIHKVYKLADKQEAKKKRYSADVNGEKVFFVIKKGLSVNGQSAMMLSYALDSYRDDLAYTLFKQ,not soluble
28,SPFMFRPRKQVFQTQGAAVSSMAQTLLPNDLASKAMGSAFTALLDANEDAQKAMKIIKTLSSLSDAWENVKETLNNPEFWKQLLSRCVQLIAGMTIAVMHPDPLTLLCLGTLTAAEITSQTSLCEEIAAKFKTIFITPPPRFPTISLFQQQSPLKQVNDIFSLAKNLDWAVKTVEKVVDWFGTWIVQEEKEQTLDQLLQRFPEHAKRISDLRNGMAAYVECKESFDFFEKLYNQAVKEKRTGIAAVCEKFRQKHDHATARCEPVVIVLRGDAGQGKSLSSQVIAQAVSKTIFGRQSVYSLPPDSDFFDGYENQFAAIMDDLGQNPDGSDFTTFCQMVSTTNFLPNMASLERKGTPFTSQLVVATTNLPEFRPVTIAHYPAVERRITFDYSVSAGPVCSKTEAGYKVLDVERAFRPTGEAPLPCFQNNCLFLEKAGLQFRDNRTKEIISLVDVIERAVARIERKKKVLTTVQTLVAQ,soluble
